# Assay results taken from patent US20220064286A1 (Genentech, published 2022).
# Where a chain is given by its changes, count along the chain named. Numbers in names are those of the source.
# T1: human TIGIT protein (human, UniProt Q495A1 22-141, limits assumed)
# T1 construct: Recombinant protein (Genentech) used in ELISA screening and as SPR analyte; also called TIGIT antigen
# T1 sequence: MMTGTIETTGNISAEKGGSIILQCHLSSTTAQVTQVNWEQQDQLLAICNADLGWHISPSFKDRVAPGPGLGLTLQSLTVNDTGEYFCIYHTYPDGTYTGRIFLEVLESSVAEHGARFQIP
# T2: hTIGIT mutant H111A (human, UniProt Q495A1)
# T2 sequence (TIGIT, looked up): T1 sequence with H90A
# T3: hTIGIT mutant Y113A (human, UniProt Q495A1)
# T3 sequence (TIGIT, looked up): T1 sequence with Y92A
# T4: hTIGIT mutant T117A (human, UniProt Q495A1)
# T4 sequence (TIGIT, looked up): T1 sequence with T96A
# T5: hTIGIT mutant Q53A (human, UniProt Q495A1)
# T5 sequence (TIGIT, looked up): T1 sequence with Q32A
# T6: hTIGIT mutant Q56A (human, UniProt Q495A1)
# T6 sequence (TIGIT, looked up): T1 sequence with Q35A
# T7: hTIGIT mutant E60A (human, UniProt Q495A1)
# T7 sequence (TIGIT, looked up): T1 sequence with E39A
# T8: hTIGIT mutant L65A (human, UniProt Q495A1)
# T8 sequence (TIGIT, looked up): T1 sequence with L44A
# T9: hTIGIT mutant I68A (human, UniProt Q495A1)
# T9 sequence (TIGIT, looked up): T1 sequence with I47A
# T10: hTIGIT mutant N70A (human, UniProt Q495A1)
# T10 sequence (TIGIT, looked up): T1 sequence with N49A
# B1: h7E7.L1H2 (antibody, V domains shown)
# VH: EVQLVQSGAEVKKPGASVKVSCKASGYTFTEYSIYWVRQAPGQRLEWIGRIDPKNGRTYYVDKFKNRATLTADTSASTAYMELSSLRSEDTAVYFCTRIYGFYFDFWGQGTLVTVSS
# VL: DIQLTQSPSFLSASVGDRVTITCKGSQNVNKYLVWYQQKPGKAPKLLIYNTDNLQSGIPSRFSGSGSGTEYTLTISSLQPEDFATYFCYQYNNGFTFGQGTKVEIK
# notes: VH: I47W against h7E7.L1H1; FR/HVR pieces
# B2: h7E7.L5H9 (antibody, V domains shown)
# VH: B1 VH with I48M, A68V, L70I, A72R, F95Y, T97A
# VL: B1 VL with I58V, Y71F, F87Y
# notes: Fully humanized version; FR/HVR pieces
# B3: h7E7.L1H9 (antibody, V domains shown)
# VH: B1 VH with I48M, A68V, L70I, A72R, F95Y, T97A
# VL: B1 VL
# notes: VH: all seven Vernier residues back to human; FR/HVR pieces
# B4: h15C8.L1H3 (antibody, V domains shown)
# VH: B1 VH with Y32H, V37L, Y60F, A72T, T97A, Y100D
# VL: B1 VL with N50S
# notes: VH: I47W against h15C8.L1H1; FR/HVR pieces
# B5: h15C8.L5H9 (antibody, V domains shown)
# VH: B1 VH with Y32H, I48M, Y60F, A68V, L70I, A72R, F95Y, T97A, Y100D
# VL: B1 VL with N50S, I58V, Y71F, F87Y
# notes: as for B2
# B6: h15C8.L1H9 (antibody, V domains shown)
# VH: B1 VH with Y32H, I48M, Y60F, A68V, L70I, A72R, F95Y, T97A, Y100D
# VL: B1 VL with N50S
# notes: as for B3
# B7: h6B2.L2H5 (antibody, V domains shown)
# VH: EVTLKESGPALVKPTQTLTLTCTFSGFSLSTYGMGVSWIRQPPGKALEWLASIWWNGNTYYNPSLKSRLTITKDTSKNQVVLTMTNMDPVDTATYYCAHTGGAVITWFAYWGQGTLVTVSS
# VL: DIQMTQSPSSLSASVGDRVTITCKASQSVGKNIAWYQQKPGKAPKLLIYYASNRYTGVPSRFSGSGSGTDFTFTISSLQPEDIATYYCQHIYNSPYPFGQGTKVEIK
# notes: Fully humanized version; FR/HVR pieces in order
# Tests used:
# human TIGIT protein [1] = biological target: T1, human TIGIT protein; assay: SPR, against h7E7.L1H1 (implied)
# Protocol: (§1) Briefly, a series S CM5 biosensor chip was activated with N-ethyl-N′-(3-dimethylaminopropyl)-carbodiimide hydrochloride (EDC) and N-hydroxysuccinimide (NHS) reagents according to the supplier's (GE Healthcare Biosciences, Piscataway, N.J.) instructions, and a human antibody capture kit was applied to couple goat anti-human Fc IgGs in order to achieve approximately 10,000 response units (RU) on each flow cell, followed by blocking un-reacted groups with 1M ethanolamine.
# (§2) (flow rate: 30 μl/min) with no regeneration between injections. The sensorgrams were recorded and evaluated by BIAcore™ T200 Evaluation Software (version 2.0) after subtraction of reference cell signal. Association rates (kₒₙ) and dissociation rates (koff) were calculated using a simple one-to-one Langmuir binding model. The equilibrium dissociation constant (KD) was calculated as the ratio koff/kₒₙ.
# (§3) The first humanized versions, h6B2, L1H1, h10A5.L1H1, h7E7, L1H1, and h15C8.L1H1, which contain both rat CDRs and framework residues at Vernier positions, and the fully humanized versions, h6B2.L2H5, h10A5.L4H4, h7E7.L5H9, and h15C8.L5H9, which contain only rat CDRs were subject to BIAcore affinity measurement by comparison with original rat antibodies, rat6B2, rat10A5, rat7E7 and rat 15C8. For binding affinity determinations of TIGIT antibodies against human TIGIT, cynomolgus monkey TIGIT and human alanine-scanned TIGIT mutants by single-cycle kinetics, Surface Plasmon Resonance (SRP) measurement with a BIACORE™-T200 instrument was used, as described above.
# [2] = biological target: T11, cynomolgus monkey (cyno) TIGIT protein (cynomolgus monkey, UniProt A0A7N9I9V4 89-209); assay: SPR, against h7E7.L1H1 (implied)
# T11 sequence (A0A7N9I9V4 entry or part of it): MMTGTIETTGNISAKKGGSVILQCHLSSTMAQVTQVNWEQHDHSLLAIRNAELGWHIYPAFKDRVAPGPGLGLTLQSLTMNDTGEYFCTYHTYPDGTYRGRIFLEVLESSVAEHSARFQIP
# Protocol: as §1, §2, §3
# human TIGIT protein [3] = biological target: T1, human TIGIT protein; assay: SPR, captured mAb
# [4] = biological target: T11, cynomolgus monkey (cyno) TIGIT protein; assay: SPR, captured mAb
# human TIGIT protein [5] = biological target: T1, human TIGIT protein; assay: SPR, against h15C8.L1H1 (implied)
# Protocol: as §1, §2, §3
# [6] = biological target: T11, cynomolgus monkey (cyno) TIGIT protein; assay: SPR, against h15C8.L1H1 (implied)
# Protocol: as §1, §2, §3
# hTIGIT mutant H111A [7] = biological target: T2, hTIGIT mutant H111A; assay: SPR (BIACORE), N=2
# hTIGIT mutant Y113A [8] = biological target: T3, hTIGIT mutant Y113A; assay: SPR (BIACORE), N=2
# hTIGIT mutant T117A [9] = biological target: T4, hTIGIT mutant T117A; assay: SPR (BIACORE), N=2
# hTIGIT mutant Q53A [10] = biological target: T5, hTIGIT mutant Q53A; assay: SPR (BIACORE), N=2
# hTIGIT mutant Q56A [11] = biological target: T6, hTIGIT mutant Q56A; assay: SPR (BIACORE), N=2
# hTIGIT mutant E60A [12] = biological target: T7, hTIGIT mutant E60A; assay: SPR (BIACORE), N=2
# hTIGIT mutant L65A [13] = biological target: T8, hTIGIT mutant L65A; assay: SPR (BIACORE), N=2
# hTIGIT mutant I68A [14] = biological target: T9, hTIGIT mutant I68A; assay: SPR (BIACORE), N=2
# hTIGIT mutant N70A [15] = biological target: T10, hTIGIT mutant N70A; assay: SPR (BIACORE), N=2
# human TIGIT protein [16] = biological target: T1, human TIGIT protein; assay: SPR (BIACORE), N=2
# hTIGIT mutant H111A [17] = biological target: T2, hTIGIT mutant H111A; assay: SPR (BIACORE) KD normalized to WT, N=2
# hTIGIT mutant Y113A [18] = biological target: T3, hTIGIT mutant Y113A; assay: SPR (BIACORE) KD normalized to WT, N=2
# hTIGIT mutant T117A [19] = biological target: T4, hTIGIT mutant T117A; assay: SPR (BIACORE) KD normalized to WT, N=2
# hTIGIT mutant Q53A [20] = biological target: T5, hTIGIT mutant Q53A; assay: SPR (BIACORE) KD normalized to WT, N=2
# hTIGIT mutant Q56A [21] = biological target: T6, hTIGIT mutant Q56A; assay: SPR (BIACORE) KD normalized to WT, N=2
# hTIGIT mutant E60A [22] = biological target: T7, hTIGIT mutant E60A; assay: SPR (BIACORE) KD normalized to WT, N=2
# hTIGIT mutant L65A [23] = biological target: T8, hTIGIT mutant L65A; assay: SPR (BIACORE) KD normalized to WT, N=2
# hTIGIT mutant I68A [24] = biological target: T9, hTIGIT mutant I68A; assay: SPR (BIACORE) KD normalized to WT, N=2
# hTIGIT mutant N70A [25] = biological target: T10, hTIGIT mutant N70A; assay: SPR (BIACORE) KD normalized to WT, N=2
# human TIGIT protein [26] = biological target: T1, human TIGIT protein; assay: SPR (BIACORE) KD normalized to WT, N=2
binder,measurement,setting,value
B1,fold drop in binding affinity,human TIGIT protein [1],> 100 fold
same,fold drop in binding affinity,[2],> 100 fold
B2,Kd,human TIGIT protein [3],> 100 nM
same,Kd,[4],> 100 nM
same,fold drop in binding affinity,human TIGIT protein [1],> 100 fold
same,fold drop in binding affinity,[2],> 100 fold
B3,fold drop in binding affinity,human TIGIT protein [1],> 100 fold
same,fold drop in binding affinity,[2],> 100 fold
B4,fold drop in binding affinity,human TIGIT protein [5],> 100 fold
same,fold drop in binding affinity,[6],> 100 fold
B5,Kd,human TIGIT protein [3],> 100 nM
same,Kd,[4],> 100 nM
same,fold drop in binding affinity,human TIGIT protein [5],> 100 fold
same,fold drop in binding affinity,[6],> 100 fold
B6,fold drop in binding affinity,human TIGIT protein [5],> 100 fold
same,fold drop in binding affinity,[6],> 100 fold
B7,Kd,human TIGIT protein [3],0.48 nM
same,koff,human TIGIT protein [3],0.00222 s⁻¹
same,kon,human TIGIT protein [3],4.65e+06 M⁻¹ s⁻¹
same,Kd,[4],0.97 nM
same,koff,[4],0.00124 s⁻¹
same,kon,[4],1.28e+06 M⁻¹ s⁻¹
same,Kd,hTIGIT mutant H111A [7],1.3 nM
same,Kd,hTIGIT mutant Y113A [8],2.5 nM
same,Kd,hTIGIT mutant T117A [9],1.1 nM
same,Kd,hTIGIT mutant Q53A [10],0.9 nM
same,Kd,hTIGIT mutant Q56A [11],1.3 nM
same,Kd,hTIGIT mutant E60A [12],2.4 nM
same,Kd,hTIGIT mutant L65A [13],3 nM
same,Kd,hTIGIT mutant I68A [14],11.5 nM
same,Kd,hTIGIT mutant N70A [15],2.8 nM
same,Kd,human TIGIT protein [16],0.7 nM
same,Binding affinity drop vs. WT,hTIGIT mutant H111A [17],1.9 fold
same,Binding affinity drop vs. WT,hTIGIT mutant Y113A [18],3.6 fold
same,Binding affinity drop vs. WT,hTIGIT mutant T117A [19],1.6 fold
same,Binding affinity drop vs. WT,hTIGIT mutant Q53A [20],1.3 fold
same,Binding affinity drop vs. WT,hTIGIT mutant Q56A [21],1.9 fold
same,Binding affinity drop vs. WT,hTIGIT mutant E60A [22],3.4 fold
same,Binding affinity drop vs. WT,hTIGIT mutant L65A [23],4.3 fold
same,Binding affinity drop vs. WT,hTIGIT mutant I68A [24],16.4 fold
same,Binding affinity drop vs. WT,hTIGIT mutant N70A [25],4 fold
same,Binding affinity drop vs. WT,human TIGIT protein [26],1 fold
